Test results taken from publication PMC8072984, “Engineering of Saposin C Protein Chimeras for Enhanced Cytotoxicity and Optimized Liposome Binding Capability” (Pharmaceutics, 2021).

Target: T1, Human Bcl-xL-ΔTM (native amino acid sequence without the transmembrane domain) (human)
T1 construct: ~24.5 kDa; Unlabeled in the NMR titration; source: cloned into pET21a; not shown: His6, N-terminal, kept
Assay: NMR titration; [1H-15N]-SOFAST-HMQC at 298 K, 600 MHz; 15N-labelled chimera at 100 µM mixed with unlabeled Bcl-xL-ΔTM (stock 900 µM, pH 6.8) at chimera:Bcl-xL molar ratios 1:0, 1:0.5, 1:1, 1:2; 10% D2O; slow exchange, the upper limit of KD estimated from the chemical shift difference assuming diffusion-controlled kon
Conditions: both partners purified

B1: sapC-PUMA chimera (saposin C linked to the BH3 domain of PUMA) (other)
chain: SDVYCEVCEFLVKEVTKLIDNNKTEKEILDAFDKMCSKLPKSLSEECQEVVDTYGSSILSILLEEVSPELVCSMLHLCSGGGGEEQWAREIGAQLRRMADDLNAQYER
modifications: Three disulfide bonds in the sapC part. Chimera numbering of sapC + 307 = P07602 numbering (S4-G83 = 311-390). Vector residues 1-3 (letters only in Figure 2) and the C-terminal thrombin-site remnant …
Kd: < 0.049 µM | koff: < 49 s⁻¹
